Assay results reported in PMC5951583 (PLoS Pathogens, 2018).
Values joined by “and” are separate entries in the source; they are usually repeats but may differ in a detail not shown here. Identical values can stand only once.

Target: HC-fragment of BoNT/DC fused to a C-terminal Streptag (HCDCS; AA 863–1285), wild-type (C. botulinum strain OFD05, UniProt A5JGM8 863-1285)
Assay: SPR
Settings: both partners purified

B1: GST-rSyt-II 1–90 (domain or fragment)
chain: MRNIFKRNQEPIVAPATTTATMPLAPAAPADNSTESTGTGESQEDMFAKLKDKFFNEINKIPLPPWALIAMAVVAGLLLLTCCFCICKKC
notes: also called GST-Syt-II 1–90; Syt-II with its TMD
- koff: 0.49 s⁻¹ and 0.63 s⁻¹

B2: GST-rSyt-II 1–61 (domain or fragment)
chain: MRNIFKRNQEPIVAPATTTATMPLAPAAPADNSTESTGTGESQEDMFAKLKDKFFNEINKI
notes: also called GST-Syt-II 1–61; isolated Syt-II
- Kd: 1800 nM
- koff: 0.24 s⁻¹
- kon: 230000 M⁻¹ s⁻¹
